Test results reported in patent publication US20240245800A1, “HIGHLY SPECIFIC RABBIT SINGLE -DOMAIN ANTIBODIES FOR DRUG DELIVERY IN IMMUNOTHERAPY APPLICATIONS” (TECHNOPHAGE, INVESTIGAÇÃO E DESENVOLVIMENTO EM …, priority 2021, published 2024).
“Also recorded” adds a separate entry of the source.

Assays:
CLBL-1 cells [1] = assay: Flow cytometry binding of C5 VL sdAb to CLBL-1 cells; format: cell-based, canine; conditions: 3 μM C5, 37° C., different timepoints
Procedure: (§1) FIG. 8. Binding and internalization characterization of C5 VL sdAb. C5 binding and internalization properties against CLBL-1 cells were evaluated by cytometry and immunofluorescence. A) For flow cytometry analysis, 1×10^6 of CLBL-1 cells were incubated with Live/Dead reagents for 30 minutes. Then, 3 μM of C5 were incubated with the cells for different timepoints at 37° C. After, cells were washed, fixed, permeabilized, and incubated for 30 min with anti-HA antibody, washed twice and incubated with anti-rat Alexa Fluor-488. […] B) By contrast, no binding of C5 was detected with Jurkat cells. C) To confirm the binding of C5 to the CLBL-1 verified by flow cytometry, we evaluated its distribution on the cells by immunofluorescence assay. […] Representative microphotographs with C5 (green) and DAPI stained-nuclei (blue) are shown.
To evaluate the binding of the VL C5 to the CLBL-1 cells, a FACS analysis was performed. […]
(§2) The C5 VL sdAb binding and cellular internalization properties towards CLBL-1 cells were studied by cytometry analysis and immunofluorescence. […] Live/dead reagent was used to exclude dead cells and the background noise was also evaluated in the control with the secondary antibody (data not shown). To better characterize the binding of the C5 to the CLBL-1 cells, we further evaluated the internalization of the C5 sdAb on the cells using an immunofluorescence assay. […]

Jurkat cells [2] = assay: Flow cytometry binding of C5 VL sdAb to Jurkat cells; format: cell-based, human
Procedure: as §1, §2

CLBL-1 cells [3] = assay: WST-1 cell viability assay on CLBL-1 cells; format: cell-based, canine; conditions: 48 h treatment
Procedure: (§3) FIG. 11—Cytotoxic effects of C5-DAB-SN-38. To determine the effect of C5-DAB-SN-38 on CLBL-1 and Jurkat cells, a cell viability assay was performed using the WST-1 reagent. 6×10^4 cells were seeded and treated with increasing amounts of compound. After 48 h treatment, cell viability was assessed. […] B) On the other hand, ADC had no effect on Jurkat cells, proving the specificity of the ADC. C5 was used as control. Best-fit EC50 values of each formulation were calculated using GraphPad Prism software (version 9.2.0, San Diego, CA, USA) using the log (inhibitor) vs response (variable slope) function. D) Effects of C5-DAB-SN-38 on DNA TopoI activity. To evaluate the effects of C5-DAB-SN-38 on DNA Topo I, we evaluated its activity using the Human Topoisomerase I Assay Kit. […]
(§4) To determine the effect of VL-DAB-SN-38 in CLBL-1 and Jurkat cell proliferation, a cell viability assay was performed using the Cell Proliferation Reagent WST-1 (Roche, Basel, Switzerland). […] After 48 h treatment, cell viability was assessed using WST-1, following the manufacturer's instructions. Absorbance at 450 nm was measured using the iMark microplate Reader (Bio-Rad). […] Best-fit EC50 values of each formulation were calculated using GraphPad Prism software (version 8.0, San Diego, CA, USA) using the log (inhibitor)) vs response (variable slope) function.

Jurkat cells [4] = assay: WST-1 cell viability assay on Jurkat cells; format: cell-based, human; conditions: 48 h treatment
Procedure: as §3, §4

Human Topoisomerase I = biological target: T1, Human Topoisomerase I (Homo sapiens, UniProt P11387); assay: DNA Topo I activity assay (Human Topoisomerase I Assay Kit); format: biochemical; conditions: 10 U Topo I, supercoiled DNA, agarose gel
T1 construct: purchased Topogen
T1 sequence (P11387 1-765): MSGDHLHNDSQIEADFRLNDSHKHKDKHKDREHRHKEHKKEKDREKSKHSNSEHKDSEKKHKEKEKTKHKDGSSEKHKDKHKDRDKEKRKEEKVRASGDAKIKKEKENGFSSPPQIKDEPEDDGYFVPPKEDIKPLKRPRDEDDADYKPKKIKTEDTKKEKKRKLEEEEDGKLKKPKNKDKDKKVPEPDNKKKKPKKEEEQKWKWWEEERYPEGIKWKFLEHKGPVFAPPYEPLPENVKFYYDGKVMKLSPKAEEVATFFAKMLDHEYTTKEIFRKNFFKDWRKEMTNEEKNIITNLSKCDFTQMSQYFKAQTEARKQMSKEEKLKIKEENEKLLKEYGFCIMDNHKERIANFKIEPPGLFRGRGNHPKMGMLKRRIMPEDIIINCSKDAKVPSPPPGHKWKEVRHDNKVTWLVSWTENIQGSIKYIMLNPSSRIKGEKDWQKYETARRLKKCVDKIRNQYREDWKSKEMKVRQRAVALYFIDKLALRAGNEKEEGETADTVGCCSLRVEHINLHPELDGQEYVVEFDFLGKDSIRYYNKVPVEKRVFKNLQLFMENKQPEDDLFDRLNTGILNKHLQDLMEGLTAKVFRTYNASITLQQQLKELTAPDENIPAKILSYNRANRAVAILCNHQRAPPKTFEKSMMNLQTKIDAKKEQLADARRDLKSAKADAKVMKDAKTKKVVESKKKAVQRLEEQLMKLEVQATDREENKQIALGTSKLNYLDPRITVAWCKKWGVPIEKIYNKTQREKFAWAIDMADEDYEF
Procedure: FIG. 11—Cytotoxic effects of C5-DAB-SN-38. To determine the effect of C5-DAB-SN-38 on CLBL-1 and Jurkat cells, a cell viability assay was performed using the WST-1 reagent. 6×10^4 cells were seeded and treated with increasing amounts of compound. After 48 h treatment, cell viability was assessed. […] B) On the other hand, ADC had no effect on Jurkat cells, proving the specificity of the ADC. C5 was used as control. Best-fit EC50 values of each formulation were calculated using GraphPad Prism software (version 9.2.0, San Diego, CA, USA) using the log (inhibitor) vs response (variable slope) function. D) Effects of C5-DAB-SN-38 on DNA TopoI activity. To evaluate the effects of C5-DAB-SN-38 on DNA Topo I, we evaluated its activity using the Human Topoisomerase I Assay Kit. After incubation of C5-DAB-SN-38 with 1× reaction buffer and 10 U of Topo I for 1 h at 37° C., the supercoiled DNA was added. To stop the reaction, stop loading buffer was added. DNA TopoI activity was visualized by 1% agarose gel electrophoresis […] with ethidium bromide. Relaxed DNA indicated TopoI activity while supercoiled DNA indicated an inhibition. […] Relaxed DNA and supercoiled DNA were used as positive/negative controls. C5 and SN-38 were also used as controls.
Topo I activity on VL-DAB-SN38 was determined using the Human Topoisomerase I Assay Kit (Topogen, CO, USA) according to the manufacturer's instructions. […]

CLBL-1 xenograft tumours = conditions: mouse, in vivo
Procedure: C5 was radiolabelled with ^99mTc(CO)3(H2O)3 and intravenously injected in the tail vein of a xenograft mice model of cNHL. Mice were sacrificed at 15 min and 3 h and the radioactivity of each organ was measured. The activity in each organ was calculated and expressed as a percentage of injected radioactivity dose per gram of organ or tissue (% ID/g).
Radiochemical purity (RP) was checked by Reversed-phase high-performance liquid chromatography (RP-HPLC) and instant thin-layer chromatography silica gel (ITLC-SG, Agilent Technologies, USA). […] Radioactivity distribution on the ITLC-SG strip was evaluated using a miniGita Star scanning device (Elysia-Raytest, (Germany) coupled with a Gamma BGO-V-Detector (Elysia Raytest). For purification and concentration of the ^99mTc-labeled sdAb, a 3 K Amicon (Merck Milipore) was used. ^99mTc(CO)3—C5 diluted in PBS was used for the biodistribution studies after RP determination by ITLC-SG. For that, mice were intravenously injected in the tail vein with 100 μl of ^99mTc(CO)3—C5 and sacrificed by cervical dislocation at 15 min, and 3 h after injection. Radioactivity was measured using a dose calibrator (Carpintec CRC-15W). After the removal of the tumour and tissues of interest, their radioactivity was measured using a γ-counter (Berthold, Germany). […]

B1: C5: rabbit derived anti-cNHL VL sdAb clone, SEQ. ID. 3; ^99mTc radiolabelled for biodistribution (antibody, listed as Oryctolagus cuniculus, V domains shown)
VL: ELDLTQTPSPVSASVGGTATINCQASQSVYNNYWWAWYQQRPGHPPKLLIYETSKLASGVPSRFKGSGSGTQFTLTIIDVQCDDAATYVCAGGYGTVIDNAFGGGTELEIL
modifications: 99mTc(CO)3 radiolabel
notes: ID; ^99mTc radiolabelled for biodistribution
CLBL-1 cells [1]
  binding to CLBL-1 cells (flow cytometry): specifically binds; also recorded: demonstrated to bind
CLBL-1 cells [1]; listed as VL C5
  binding to CLBL-1 cells (flow cytometry): shown to bind to the cells, increasing its interaction with time
Jurkat cells [2]
  binding to Jurkat cells (flow cytometry): no binding interaction
CLBL-1 cells [3]
  effect on CLBL-1 (cNHL) cell viability/proliferation: does not affect cell proliferation
Jurkat cells [4]
  effect on Jurkat cell viability/proliferation: does not affect cell proliferation
Human Topoisomerase I
  effect on DNA Topo I activity: not able to alter enzyme activity
CLBL-1 xenograft tumours
  elimination from blood and major organs: fast elimination
